Data on two substances can be found in paper PMC6876572.

In experiment [1] the target is Cof1-decorated (Cofilin-saturated) actin filament (rabbit | S. cerevisiae) (UniProt P68135). Put plainly: single-molecule two-colour TIRF imaging; actin filaments (10% Alexa-488, 0.5% biotinylated) anchored along their lengths on streptavidin-coated coverslips, exposed to a mixture of Cy5-Srv2ΔCARP (8.3 or 83 nM hexamers) and 1 µM yeast Cof1 in TIRF buffer (10 mM imidazole pH 7.4, 50 mM KCl, 1 mM MgCl2, 1 mM EGTA, 0.2 mM ATP, 10 mM DTT); dwell and waiting times at the pointed end; kon corrected for unlabeled molecules.

For experiment [2] the target is unchanged.

Regarding “Cy5-maleimide-labeled Srv2ΔCARP (S. cerevisiae Srv2/CAP lacking the CARP domain) (from UniProt P17555 1-526) (domain or fragment)”, in experiment [1], the average dwell time at the pointed end was determined as 2.2 s; the fractional occupancy of filament ends at 8.3 nM (calculated from kon and koff) was 16%; the fractional occupancy of filament ends at 83 nM (calculated from kon and koff) was 66%; the koff (in general, a measure of how fast the partners let go of each other) stood at 0.45 s⁻¹. In addition, the kon – broadly, a measure of how fast the partners come together – in experiment [1] turned out to be 1.1e+07 M⁻¹ s⁻¹.
On to “N-Srv2 (N-terminal half of S. cerevisiae Srv2/CAP) (domain or fragment)”, for which the KM of the rate of pointed-end depolymerization against N-Srv2 concentration at 1 µM Cof1 (mf-TIRF, fit to the Michaelis-Menten equation) in experiment [2] is 0.05 µM.
